Substrate in data set [1]: O=CC(O)COP(=O)(O)O
In words: purified protein. It is filed as biochemical, Bacillus subtilis. As to conditions: R5P and glutamine as co-substrates, 50 mM Tris-Cl pH 7.5, 37°C.

Data set [2] concerns the molecule itself. In words: SEC-MALS; Superdex 200 10/300 GL, 100 µl at 1 mg/ml; 50 mM potassium phosphate pH 7.5, 50 mM potassium chloride, 0.01% sodium azide; miniDAWN TREOS; dodecamer to hexamers.
Substrate in data set [3]: NC(=O)CC[C@H](N)C(=O)O
In words: coupled glutaminase assay. It is filed as biochemical, Bacillus subtilis. Particulars: activated by wild-type Pdx1, 50 mM Tris-Cl pH 7.5, 37°C. The source says: coupled glutaminase assay on Pdx2 (glutaminase, activated by Pdx1)

Several values for one entry are separate records, joined by “and”; a condition that tells them apart may be missing. Equal values may be shown once.

B1: PLP synthase (Pdx1 + Pdx2), native Pdx1 (Bacillus subtilis subsp. subtilis str. 168) (protein)
chain: AQTGTERVKRGMAEMQKGGVIMDVINAEQAKIAEEAGAVAVMALERVPADIRAAGGVARMADPTIVEEVMNAVSIPVMAKARIGHIVEARVLEAMGVDYIDESEVLTPADEEFHLNKNEYTVPFVCGCRDLGEATRRIAEGASMLRTKGEPGTGNIVEAVRHMRKVNAQVRKVVAMSEDELMTEAKNLGAPYELLLQIKKDGKLPVVNFAAGGVATPADAALMMQLGADGVFVGSGIFKSDNPAKFAKAIVEATTHFTDYKLIAELSKELGTAMKGIEISNLLPEQRMQERGW
notes: complex of untagged Pdx1 with Pdx2; 24-subunit complex; with Pyridoxal 5'-phosphate synthase subunit PdxT
Turning to B1, in data set [1], the Km turned out to be 186 ± 17 µM, the turnover number (kcat) is 0.00055 ± 3.3e-05 s⁻¹ and the kcat/Km was determined as 2.95 M⁻¹ s⁻¹.

B2: PLP synthase (Pdx1-His6 + Pdx2) (Bacillus subtilis subsp. subtilis str. 168; H115A) (protein)
chain: AQTGTERVKRGMAEMQKGGVIMDVINAEQAKIAEEAGAVAVMALERVPADIRAAGGVARMADPTIVEEVMNAVSIPVMAKARIGHIVEARVLEAMGVDYIDESEVLTPADEEFALNKNEYTVPFVCGCRDLGEATRRIAEGASMLRTKGEPGTGNIVEAVRHMRKVNAQVRKVVAMSEDELMTEAKNLGAPYELLLQIKKDGKLPVVNFAAGGVATPADAALMMQLGADGVFVGSGIFKSDNPAKFAKAIVEATTHFTDYKLIAELSKELGTAMKGIEISNLLPEQRMQERGW
notes: complex of C-terminally hexahistidine-tagged Pdx1 with Pdx2-His6; with Pyridoxal 5'-phosphate synthase subunit PdxT
On to B2, for which, in data set [1] (His-tagged proteins), the Km came out at 229 ± 55 µM, the kcat amounted to 0.00013 ± 0 s⁻¹ and the catalytic efficiency (kcat/Km) is 0.583 M⁻¹ s⁻¹.

B3: PLP synthase (Pdx1-His6 + Pdx2) (Bacillus subtilis subsp. subtilis str. 168; H115A/R138A) (protein)
chain: AQTGTERVKRGMAEMQKGGVIMDVINAEQAKIAEEAGAVAVMALERVPADIRAAGGVARMADPTIVEEVMNAVSIPVMAKARIGHIVEARVLEAMGVDYIDESEVLTPADEEFALNKNEYTVPFVCGCRDLGEATRAIAEGASMLRTKGEPGTGNIVEAVRHMRKVNAQVRKVVAMSEDELMTEAKNLGAPYELLLQIKKDGKLPVVNFAAGGVATPADAALMMQLGADGVFVGSGIFKSDNPAKFAKAIVEATTHFTDYKLIAELSKELGTAMKGIEISNLLPEQRMQERGW
notes: as for B2
Turning to B3, in data set [1] (His-tagged proteins), the Michaelis constant (Km) was 307 ± 75 µM, the kcat was 0.0001 ± 0 s⁻¹ and the kcat/Km is 0.333 M⁻¹ s⁻¹.

B4: PLP synthase (Pdx1-His6 + Pdx2) (Bacillus subtilis subsp. subtilis str. 168; K187A) (protein)
chain: AQTGTERVKRGMAEMQKGGVIMDVINAEQAKIAEEAGAVAVMALERVPADIRAAGGVARMADPTIVEEVMNAVSIPVMAKARIGHIVEARVLEAMGVDYIDESEVLTPADEEFHLNKNEYTVPFVCGCRDLGEATRRIAEGASMLRTKGEPGTGNIVEAVRHMRKVNAQVRKVVAMSEDELMTEAANLGAPYELLLQIKKDGKLPVVNFAAGGVATPADAALMMQLGADGVFVGSGIFKSDNPAKFAKAIVEATTHFTDYKLIAELSKELGTAMKGIEISNLLPEQRMQERGW
notes: as for B2
As for B4, in data set [1] (His-tagged proteins), the Michaelis-Menten constant (Km) was determined as 267 ± 18 µM, the catalytic constant (kcat) was determined as 0.0005 ± 1.7e-05 s⁻¹ and the kcat/Km came to 1.87 M⁻¹ s⁻¹.

B5: PLP synthase (Pdx1-His6 + Pdx2) (Bacillus subtilis subsp. subtilis str. 168; R138A) (protein)
chain: AQTGTERVKRGMAEMQKGGVIMDVINAEQAKIAEEAGAVAVMALERVPADIRAAGGVARMADPTIVEEVMNAVSIPVMAKARIGHIVEARVLEAMGVDYIDESEVLTPADEEFHLNKNEYTVPFVCGCRDLGEATRAIAEGASMLRTKGEPGTGNIVEAVRHMRKVNAQVRKVVAMSEDELMTEAKNLGAPYELLLQIKKDGKLPVVNFAAGGVATPADAALMMQLGADGVFVGSGIFKSDNPAKFAKAIVEATTHFTDYKLIAELSKELGTAMKGIEISNLLPEQRMQERGW
notes: as for B2
As for B5, in data set [1] (His-tagged proteins), the Michaelis constant (Km) was determined as 262 ± 26 µM, the kcat worked out at 0.0002 ± 1.7e-05 s⁻¹ and the kcat/Km stood at 0.767 M⁻¹ s⁻¹.

B6: PLP synthase (Pdx1-His6 + Pdx2) (Bacillus subtilis subsp. subtilis str. 168; E105D) (protein)
chain: AQTGTERVKRGMAEMQKGGVIMDVINAEQAKIAEEAGAVAVMALERVPADIRAAGGVARMADPTIVEEVMNAVSIPVMAKARIGHIVEARVLEAMGVDYIDESDVLTPADEEFHLNKNEYTVPFVCGCRDLGEATRRIAEGASMLRTKGEPGTGNIVEAVRHMRKVNAQVRKVVAMSEDELMTEAKNLGAPYELLLQIKKDGKLPVVNFAAGGVATPADAALMMQLGADGVFVGSGIFKSDNPAKFAKAIVEATTHFTDYKLIAELSKELGTAMKGIEISNLLPEQRMQERGW
notes: as for B2
For B6, in data set [1] (His-tagged proteins), the Km was 249 ± 26 µM, the turnover number (kcat) came out at 0.000233 ± 1.7e-05 s⁻¹ and the kcat/Km is 0.933 M⁻¹ s⁻¹.

B7: PLP synthase (Pdx1-His6 + Pdx2) (Bacillus subtilis subsp. subtilis str. 168) (protein)
chain: AQTGTERVKRGMAEMQKGGVIMDVINAEQAKIAEEAGAVAVMALERVPADIRAAGGVARMADPTIVEEVMNAVSIPVMAKARIGHIVEARVLEAMGVDYIDESEVLTPADEEFHLNKNEYTVPFVCGCRDLGEATRRIAEGASMLRTKGEPGTGNIVEAVRHMRKVNAQVRKVVAMSEDELMTEAKNLGAPYELLLQIKKDGKLPVVNFAAGGVATPADAALMMQLGADGVFVGSGIFKSDNPAKFAKAIVEATTHFTDYKLIAELSKELGTAMKGIEISNLLPEQRMQERGW
notes: as for B2
As to B7, in data set [1] (His-tagged proteins), the Michaelis-Menten constant (Km) stood at 155 ± 23 µM, the kcat was determined as 0.0006 ± 8.3e-05 s⁻¹ and the kcat/Km is 3.87 M⁻¹ s⁻¹.

B8: Pdx1 wild type (Bacillus subtilis), native (untagged) (enzyme)
chain: MAQTGTERVKRGMAEMQKGGVIMDVINAEQAKIAEEAGAVAVMALERVPADIRAAGGVARMADPTIVEEVMNAVSIPVMAKARIGHIVEARVLEAMGVDYIDESEVLTPADEEFHLNKNEYTVPFVCGCRDLGEATRRIAEGASMLRTKGEPGTGNIVEAVRHMRKVNAQVRKVVAMSEDELMTEAKNLGAPYELLLQIKKDGKLPVVNFAAGGVATPADAALMMQLGADGVFVGSGIFKSDNPAKFAKAIVEATTHFTDYKLIAELSKELGTAMKGIEISNLLPEQRMQERGW
notes: Pdx1, synthase subunit of PLP synthase, Bacillus subtilis; construct pETBsPdx1 of Raschle et al. (2005); Native means untagged; Dodecamer by SEC-MALS; also called BsPdx1 wild type; PLP synthase synthase subunit; source: construct pETBsPdx1; expressed and purified as described by Raschle et al. (2005); copies: 12
Turning to B8, the “stoichiometry N” value in data set [2] came to 12.

B9: Pdx1 R288A (Bacillus subtilis), native (untagged) (enzyme)
chain: MAQTGTERVKRGMAEMQKGGVIMDVINAEQAKIAEEAGAVAVMALERVPADIRAAGGVARMADPTIVEEVMNAVSIPVMAKARIGHIVEARVLEAMGVDYIDESEVLTPADEEFHLNKNEYTVPFVCGCRDLGEATRRIAEGASMLRTKGEPGTGNIVEAVRHMRKVNAQVRKVVAMSEDELMTEAKNLGAPYELLLQIKKDGKLPVVNFAAGGVATPADAALMMQLGADGVFVGSGIFKSDNPAKFAKAIVEATTHFTDYKLIAELSKELGTAMKGIEISNLLPEQAMQERGW
notes: Pdx1, synthase subunit of PLP synthase, Bacillus subtilis; also called Pdx1 R288A mutein; source: site directed mutagenesis of Pdx1; expressed and purified as described by Raschle et al. (2005); copies: 12
Take B9: in data set [2], the “stoichiometry N” value turned out to be 12.

B10: Pdx1 K187A (Bacillus subtilis), hexahistidine tagged (enzyme)
chain: MAQTGTERVKRGMAEMQKGGVIMDVINAEQAKIAEEAGAVAVMALERVPADIRAAGGVARMADPTIVEEVMNAVSIPVMAKARIGHIVEARVLEAMGVDYIDESEVLTPADEEFHLNKNEYTVPFVCGCRDLGEATRRIAEGASMLRTKGEPGTGNIVEAVRHMRKVNAQVRKVVAMSEDELMTEAANLGAPYELLLQIKKDGKLPVVNFAAGGVATPADAALMMQLGADGVFVGSGIFKSDNPAKFAKAIVEATTHFTDYKLIAELSKELGTAMKGIEISNLLPEQRMQERGW
notes: Pdx1, synthase subunit of PLP synthase, Bacillus subtilis; parent construct pETBsPdx1-His6 of Strohmeier et al. (2006); It is in a dodecamer:hexamer equilibrium by SEC-MALS; also called Pdx1 K187A mutein; source: site directed mutagenesis of Pdx1; expressed and purified as described by Raschle et al. (2005); not shown: His6, C-terminal, kept
Turning to B10, the “stoichiometry N” value in data set [2] was 12 and 6.

B11: Pdx2 (glutaminase, activated by Pdx1) (Bacillus subtilis subsp. subtilis str. 168) (protein)
chain: MLTIGVLGLQGAVREHIHAIEACGAAGLVVKRPEQLNEVDGLILPGGESTTMRRLIDTYQFMEPLREFAAQGKPMFGTCAGLIILAKEIAGSDNPHLGLLNVVVERNSFGRQVDSFEADLTIKGLDEPFTGVFIRAPHILEAGENVEVLSEHNGRIVAAKQGQFLGCSFHPELTEDHRVTQLFVEMVEEYKQKALV
notes: Pdx2 with untagged wild-type Pdx1; with Pyridoxal 5'-phosphate synthase subunit PdxS
Turning to B11, in data set [3], the Km was found to be 1160 ± 180 µM, the turnover number (kcat) was found to be 0.0295 ± 0.00133 s⁻¹ and the catalytic efficiency (kcat/Km) came to 25.5 M⁻¹ s⁻¹.

Source of the values: publication PMC3024981, “It Takes Two to Tango: Defining an Essential Second Active Site in Pyridoxal 5′-Phosphate Synthase” (PLoS ONE, 2011).
